Results: paper doi:10.1101/2023.02.03.526835 (bioRxiv, 2023)

Target: the molecule itself
Assay: cryo-EM structure

B1: Lcb2 (enzyme, S. cerevisiae)
chain: MSTPANYTRVPLCEPEELPDDIQKENEYGTLDSPGHLYQVKSRHGKPLPEPVVDTPPYYISLLTYLNYLILIILGHVHDFLGMTFQKNKHLDLLEHDGLAPWFSNFESFYVRRIKMRIDDCFSRPTTGVPGRFIRCIDRISHNINEYFTYSGAVYPCMNLSSYNYLGFAQSKGQCTDAALESVDKYSIQSGGPRAQIGTTDLHIKAEKLVARFIGKEDALVFSMGYGTNANLFNAFLDKKCLVISDELNHTSIRTGVRLSGAAVRTFKHGDMVGLEKLIREQIVLGQPKTNRPWKKILICAEGLFSMEGTLCNLPKLVELKKKYKCYLFIDEAHSIGAMGPTGRGVCEIFGVDPKDVDILMGTFTKSFGAAGGYIAADQWIIDRLRLDLTTVSYSESMPAPVLAQTISSLQTISGEICPGQGTERLQRIAFNSRYLRLALQRLGFIVYGVADSPVIPLLLYCPSKMPAFSRMMLQRRIAVVVVAYPATPLIESRVRFCMSASLTKEDIDYLLRHVSEVGDKLNLKSNSGKSSYDGKRQRWDIEEVIRRTPEDCKDDKYFVN
modifications: pyridoxal 5'-phosphate (PLP) as internal aldimine with K366
binding result: binds
